Tests used:
[1] = tested on: carrageenan-induced paw edema; assay: Carrageenan-induced paw edema; format: in vivo, Sprague Dawley rats
Protocol: Based on the standard model (Winter et al., Proc Soc Exp Biol Med 111:544, 1962; Hansra et al., Inflammation 24:141, 2000), the experiment was performed as follows. Male Sprague Dawley rats were randomized by weight into three treatment groups. The animals were administered MP8 or control solution subcutaneously, or indomethacin by mouth. One hour later, they were injected in the left hind paw with a sterile solution of 1% carrageenan suspension in water, in order to induce swelling. Three hours later, the volume of the injected paw was measured by water displacement in a water plethysmograph (mean±SEM; 10 animals per group).
Male Sprague Dawley rats were administered with test protein or indomethacin (anti-inflammatory control), and then challenged in a hind footpad with carrageenan, as in Example 12.

[2] = target: p55 TNF Receptor (Homo sapiens, UniProt P19438); assay: FRET peptide cleavage assay, p55 TNF receptor peptide; format: biochemical; conditions: Zn++ 0.1 mM, Ca++ 2 mM, corrected for EDTA, 37° C. for 3 hours
Protocol: Cytokine-specific proteolytic activity can rapidly be quantified by Fluorescence Resonance Energy Transfer (FRET). Peptides having the amino acid sequence of the TNF Receptor or other protein substrates are labeled at opposite ends with a fluorescence emitter and a fluorescence quencher. The peptide is then incubated with a source of receptor cleaving enzyme, and fluorescence is measured. The quenching group normally absorbs fluorescence from the emitter. But enzymatic cleavage of the peptide decouples the quenching group, and fluorescence emission increases proportionally.
The peptides used as substrates in the cleavage assay were taken from the known sites of proteolytic cleavage of the whole protein. The peptides were labeled with the fluorescence emitter (Edans-●) at the C-terminal, and the quenching hapten (Dabcyl-▴) at the N-terminal.
The assay is conducted in the presence of the metal cations Zn^++ (0.1 mM) and Ca^++ (2 mM), and corrected for cleavage in the presence of EDTA (20 mM). Dependence on divalent cations confirms that the enzyme activity measured in this assay is a metalloprotease. The assay mixture also contains a cocktail of protease inhibitors and bovine albumin. Cleavage is measured as the net change in fluorescence emission after incubating the enzyme with the peptide at 37° C. for 3 hours. […]

[3] = tested on: TNF receptor; assay: Cell surface cleavage assay, release of TNF receptor isoforms by enzyme immunoassay; format: cell-based; conditions: 25 μg protein with 2.5×10^6 cells; (treated—untreated)/untreated
Protocol: To determine cell surface cleavage activity, 25 μg of MP8-FL2 was combined with 2.5×10^6 cells. Release of both TNF receptor isoforms was determined by enzyme immunoassay as (treated—untreated)/untreated.

[4] = tested on: LPS-induced septic shock; assay: LPS/galactosamine-induced septic shock model; format: in vivo, Balb/c mice; conditions: up to 40 μg one hour before 10 μg LPS and 15 mg galactosamine
Protocol: A classic model for determining effectiveness of agents against cytokine-mediated inflammation is endotoxin-induced septic shock (Morrison et al., J Infect Dis 162:1063, 1990).
The septic shock experiment was conducted as follows. Female Balb/c mice were randomized by weight into 6 treatment groups. Sepsis was induced by injecting 10 μg LPS and 7 mg galactosamine in the lateral or dorsal caudal vein. Some of the groups were pretreated with 50,000 FU of MP8 simultaneously or 3 hours in advance of the LPS challenge to determine whether there was a protective effect.
FIG. 8 is a Kaplan-Meier survival curve, showing the mortality in each of the treatment groups in the study. Without any treatment or challenge, there is no effect on the animals, and the line stays at the top. Life-compromising challenge causes the line to fall to the bottom of the graph in a step-wise fashion as each animal succumbs. Treatment that is protective against the challenge maintains the line near the top of the graph.
The enzyme was administered in a volume of 110 μL at one hour before the LPS challenge.
Stability of the clinical effect of MP8 was determined in the septic shock model. Female Balb/c mice were injected with 300,000 FU of MP8 that had been stored for 4 days at −70° C., or 7 days at 4° C. One hour later, the mice were challenged with 10 μg LPS and 7 mg galactosamine as before.
In this example, durability of receptor cleavage in vivo was determined by treating animals subcutaneously up to three days in advance with 300,000 FU of MP8. The mice were then challenged with […] LPS and 7 mg galactosamine in the usual fashion.
Sepsis was induced in Balb/c mice by administering 10 μg LPS and […] galactosamine, as in Example 3. Randomized groups were pretreated with up to 40 μg MP8-FL2 one hours in advance of the LPS challenge.

[5] = Isoelectric point; format: physicochemical
[6] = tested on: p55 or p75 TNF receptor; conditions: cited from earlier work

With `COc1ccc2c(c1)c(CC(=O)O)c(C)n2C(=O)c1ccc(Cl)cc1` [indomethacin, reference compound] the “inhibition of edema formation” value ([1]; given one hour before carrageenan, paw volume three hours later, MP8 subcutaneously, indomethacin by mouth) was 49%.

B1: MP8-FL2: full length MP8 (SEQ. ID NO:53) without HIS tag, produced from E. coli strain MP820 (protein, listed as Homo sapiens)
chain: MCVHPGACLPHVGVSWAEFPGHFSVELSSLLVRNVNYEIPSLKKQIAKCQQLQQEYSRKEEECQAGAAEMREQFYHSCKQYGITGENVRGELLALVKDLPSQLAEIGAAAQQSLGEAIDVYQASVGFVCESPTEQVLPMLRFVQKRGNSTVYEWRTGTEPSVVERPHLEELPEQVAEDAIDWGDFGVEAVSEGTDSGISAEAAGIDWGIFPESDSKDPGGDGIDWGDDAVALQITVLEAGTQAPEGVARGPDALTLLEYTETRNQFLDELMELEIFLAQRAVELSEEADVLSVSQFQLAPAILQGQTKEKMVTMVSVLEDLIGKLTSLQLQHLFMILASPRYVDRVTEFLQQKLKQSQLLALKKELMVQKQQEALEEQAALEPKLDLLLEKTKELQKLIEADISKRYSGRPVNLMGTSL
With B1 the “cleavage of p55 TNF receptor (R1) peptide” value [2] was “caused cleavage”, the “cleavage and release of TNF receptor from the cell surface” value [3] was “cause cleavage and release of TNF receptor, with preference for the R1 (p55) isoform” and the “protection against septic shock” value [4] was “protected the mice in a dose-dependent fashion”. For the same molecule, the paw swelling ([1]; challenge in hind footpad with carrageenan as in Example 12) was “significantly prevented paw swelling” and the “Isoelectric Point - By isoelectric focusing” value [5] was 5.6.

B2: MDC-9: metalloprotease (protein, UniProt Q13443 29-819, looked up)
Disintegrin and …: AARPGFQQTSHLSSYEIITPWRLTRERREAPRPYSKQVSYVIQAEGKEHIIHLERNKDLLPEDFVVYTYNKEGTLITDHPNIQNHCHYRGYVEGVHNSSIALSDCFGLRGLLHLENASYGIEPLQNSSHFEHIIYRMDDVYKEPLKCGVSNKDIEKETAKDEEEEPPSMTQLLRRRRAVLPQTRYVELFIVVDKERYDMMGRNQTAVREEMILLANYLDSMYIMLNIRIVLVGLEIWTNGNLINIVGGAGDVLGNFVQWREKFLITRRRHDSAQLVLKKGFGGTAGMAFVGTVCSRSHAGGINVFGQITVETFASIVAHELGHNLGMNHDDGRDCSCGAKSCIMNSGASGSRNFSSCSAEDFEKLTLNKGGNCLLNIPKPDEAYSAPSCGNKLVDAGEECDCGTPKECELDPCCEGSTCKLKSFAECAYGDCCKDCRFLPGGTLCRGKTSECDVPEYCNGSSQFCQPDVFIQNGYPCQNNKAYCYNGMCQYYDAQCQVIFGSKAKAAPKDCFIEVNSKGDRFGNCGFSGNEYKKCATGNALCGKLQCENVQEIPVFGIVPAIIQTPSRGTKCWGVDFQLGSDVPDPGMVNEGTKCGAGKICRNFQCVDASVLNYDCDVQKKCHGHGVCNSNKNCHCENGWAPPNCETKGYGGSVDSGPTYNEMNTALRDGLLVFFFLIVPLIVCAIFIFIKRDQLWRSYFRKKRSQTYESDGKNQANPSRQPGSVPRHVSPVTPPREVPIYANRFAVPTYAAKQPQQFPSRPPPPQPKVSSQGNLIPARPAPAPPLYSSLT
In the case of B2, the “cleavage of p55 or p75 TNF receptor” value [6] is listed as “do not efficiently cleave”.

B3: ADAM-10: metalloprotease (protein, UniProt O14672 214-748, looked up)
Disintegrin and …: TTSAEKNTCQLYIQTDHLFFKYYGTREAVIAQISSHVKAIDTIYQTTDFSGIRNISFMVKRIRINTTADEKDPTNPFRFPNIGVEKFLELNSEQNHDDYCLAYVFTDRDFDDGVLGLAWVGAPSGSSGGICEKSKLYSDGKKKSLNTGIITVQNYGSHVPPKVSHITFAHEVGHNFGSPHDSGTECTPGESKNLGQKENGNYIMYARATSGDKLNNNKFSLCSIRNISQVLEKKRNNCFVESGQPICGNGMVEQGEECDCGYSDQCKDECCFDANQPEGRKCKLKPGKQCSPSQGPCCTAQCAFKSKSEKCRDDSDCAREGICNGFTALCPASDPKPNFTDCNRHTQVCINGQCAGSICEKYGLEECTCASSDGKDDKELCHVCCMKKMDPSTCASTGSVQWSRHFSGRTITLQPGSPCNDFRGYCDVFMRCRLVDADGPLARLKKAIFSPELYENIAEWIVAHWWAVLLMGIALIMLMAGFIKICSVHTPSSNPKLPPPKPLPGTLKRRRPPQPIQQPQRQRPRESYQMGHMRR
In the case of B3, the “cleavage of p55 or p75 TNF receptor” value [6] is listed as “do not efficiently cleave”.

Reference: patent publication US7807387B2, “Biological agent that causes IL-6 receptor release” (Meyer Pharmaceuticals LLC, priority 2003, dated 2010)
